Results taken from patent EP4289863A9 (Shanghai Huaota Biopharmaceutical Co., Ltd., dated 2024).
Residue numbers refer to the chain shown, from its start. Names and notes keep the numbering of the source.

T1: IL36R (analyte of Table 17) (Homo sapiens (Human), UniProt Q9HB29 20-335)
T1 sequence: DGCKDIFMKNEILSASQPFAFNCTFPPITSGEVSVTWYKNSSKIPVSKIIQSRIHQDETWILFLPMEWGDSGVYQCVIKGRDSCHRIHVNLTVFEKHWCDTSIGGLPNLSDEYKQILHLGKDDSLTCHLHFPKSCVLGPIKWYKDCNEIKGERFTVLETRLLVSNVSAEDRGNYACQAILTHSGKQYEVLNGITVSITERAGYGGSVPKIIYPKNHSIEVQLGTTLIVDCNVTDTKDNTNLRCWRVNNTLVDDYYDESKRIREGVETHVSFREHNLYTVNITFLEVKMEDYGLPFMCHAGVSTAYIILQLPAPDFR

T2: human IL-36R (human, UniProt Q9HB29 20-575)
T2 sequence (looked up): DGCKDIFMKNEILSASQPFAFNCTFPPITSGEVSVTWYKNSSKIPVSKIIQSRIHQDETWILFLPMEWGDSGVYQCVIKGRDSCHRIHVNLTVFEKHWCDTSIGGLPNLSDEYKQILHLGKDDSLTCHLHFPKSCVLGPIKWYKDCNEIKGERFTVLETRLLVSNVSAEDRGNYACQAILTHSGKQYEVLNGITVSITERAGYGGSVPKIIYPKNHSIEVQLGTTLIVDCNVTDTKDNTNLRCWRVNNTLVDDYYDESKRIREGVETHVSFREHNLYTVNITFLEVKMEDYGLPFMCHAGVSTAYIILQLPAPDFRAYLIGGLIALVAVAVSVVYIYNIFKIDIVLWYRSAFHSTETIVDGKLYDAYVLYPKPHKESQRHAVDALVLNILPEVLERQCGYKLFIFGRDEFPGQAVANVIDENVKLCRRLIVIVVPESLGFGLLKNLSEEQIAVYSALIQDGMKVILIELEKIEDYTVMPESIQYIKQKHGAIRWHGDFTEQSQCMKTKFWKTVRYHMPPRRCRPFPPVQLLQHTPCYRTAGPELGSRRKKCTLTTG

T3: His-tagged human IL-1 Rrp2/IL-1R6 protein (human, UniProt Q9HB29 20-335, limits assumed)
T3 construct: Bought protein; also called His-tagged human IL-1 Rrp2/IL-IR6 protein; not shown: His tag
T3 sequence (looked up): T1 sequence

T4: IL17A (analyte of Table 17) (Homo sapiens (Human), UniProt Q16552 24-155)
T4 sequence: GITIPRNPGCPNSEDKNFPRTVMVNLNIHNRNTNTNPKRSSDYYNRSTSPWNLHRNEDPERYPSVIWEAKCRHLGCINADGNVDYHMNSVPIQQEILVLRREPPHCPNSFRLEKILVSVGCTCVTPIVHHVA

T5: Human IL-17A (human, UniProt Q16552 24-155)
T5 sequence (looked up): T4 sequence

B1: humanized anti-IL-36R antibody 900527 (antibody, V domains shown)
VH: QVQLVQSGAEVKKPGASVKVSCKASGYTFTSSWMHWAKQAPGQGLEWIGEIHPNSAKTNYNQKFQGRVTMTRDTSISTAYMELSRLRSDDTAVYYCARVDYGKPWFAYWGQGTLVTVSS
VL: QIVLTQSPGTLSLSPGERATLSCRASSSVSSSYLHWYQQKPGQAPRLWIYSTSSRATGIPDRFSGSGSGTDFTLTISRLEPEDFATYYCQQFQSSPLTFGQGTKLEIK
notes: IgG1 (vector with L234A, L235A) and human kappa
B2: humanized anti-IL-36R antibody 900513 (antibody, V domains shown)
VH: B1 VH
VL: B1 VL with Q1E, R24S, S54N
notes: as for B1
B3: humanized anti-IL-36R antibody 900534 (antibody, V domains shown)
VH: B1 VH
VL: B1 VL with W48L
notes: as for B1
B4: anti-IL-36R chimeric antibody 900497 (antibody, V domains shown)
VH: QVQLQQTGSVLVRPGTSVKLSCKASGYTFTSSWMHWAKQRPGQGLEWIGEIHPNSAKTNYNEKFKGKATLTVDTFSSTAYVDLSSLASEDSAVYYCARVDYGKPWFAYWGQGTLVTVSA
VL: QIVLTQSPTIMSASPGERVTMTCSASSSVSSSYLHWYQQKPGSSPKLWIYSTSNLASGVPARFSGSGSGTSYSLTINSMEAEDAATYYCQQFQSSPLTFGAGTKLGLK
notes: Human-mouse chimera: human IgG1 heavy constant region with L234A and L235A (Eu numbering), human kappa light constant region
B5: IL17A-IL36R bispecific antibody 700007 (bispecific antibody)
heavy (part 1 of 2): QVQLVQSGSELKKPGASVKVSCKASEYIFTNYGMNWVKQAPGQGFEWMGWIDTNTGEPTYAQGFTGRFVFSLDTSVSTAYLQISSLKAEDTATYYCANYGWGYFDYWGQGTTVTVSS
heavy (part 2 of 2): GGGGSGGGGSGGGGSGGGGSQIVLTQSPGTLSLSPGERATLSCRASSSVSSSYLHWYQQKPGQAPRLWIYSTSSRATGIPDRFSGSGSGTDFTLTISRLEPEDFATYYCQQFQSSPLTFGQGTKLEIKGGGGSGGGGSGGGGSGGGGSQVQLVQSGAEVKKPGASVKVSCKASGYTFTSSWMHWAKQAPGQGLEWIGEIHPNSAKTNYNQKFQGRVTMTRDTSISTAYMELSRLRSDDTAVYYCARVDYGKPWFAYWGQGTLVTVSS
light: DVVMTQTPPSLPVNPGEPASISCRSSQSLVHSNGYTYLHWYLQKPGQSPQLLIYKVSNHLSGVPDRFSGSGSGTDFTLKISWVEAEDVGVYFCSQSTHVPYTFGGGTKLEIKRTVAAPSVFIFPPSDEQLKSGTASVVCLLNNFYPREAKVQWKVDNALQSGNSQESVTEQDSKDSTYSLSSTLTLSKADYEKHKVYACEVTHQGLSSPVTKSFNRGEC
notes: not shown: heavy constant region CH1-CH2-CH3
B6: IL17A-IL36R bispecific antibody 700009 (bispecific antibody)
heavy (part 1 of 2): B5 heavy (part 1 of 2)
heavy (part 2 of 2): GGGGSGGGGSGGGGSGGGGSQIVLTQSPGTLSLSPGERATLSCRASSSVSSSYLHWYQQKPGQAPRLWIYSTSSRATGIPDRFSGSGSGTDFTLTISRLEPEDFATYYCQQFQSSPLTFGQGTKLEIKGGGGSGGGGSGGGGSGGGGSGGGGSQVQLVQSGAEVKKPGASVKVSCKASGYTFTSSWMHWAKQAPGQGLEWIGEIHPNSAKTNYNQKFQGRVTMTRDTSISTAYMELSRLRSDDTAVYYCARVDYGKPWFAYWGQGTLVTVSS
light: B5 light
notes: as for B5

Assays:
[1] = target: T1, IL36R (analyte of Table 17); test: SPR Biacore 8K, antibody captured on anti-human chip, antigen as analyte, 1:1 model
human IL-36R [2] = target: T2, human IL-36R; test: cell-based or functional assay
monkey IL-36R = target: T6, monkey IL-36R (monkey); test: flow cytometry on CHO-K1 cells expressing monkey IL-36R
T6 construct: whole, on cells

human IL-36R [3] = target: T2, human IL-36R; test: cell-based or functional assay; remark: listed apart in the source
human IL-36R [4] = target: T2, human IL-36R; test: cell-based or functional assay; remark: listed apart in the source
[5] = target: T3, His-tagged human IL-1 Rrp2/IL-1R6 …; test: SPR Biacore 8K, His-tagged antigen captured by anti-His antibody, antibody as analyte, 1:1 model
human IL-36R [6] = target: T2, human IL-36R; test: cell-based or functional assay; remark: listed apart in the source
human IL-36R [7] = target: T2, human IL-36R; test: flow cytometry on CHO-K1 cells expressing human IL-36R
human IL-36R [8] = target: T2, human IL-36R; test: flow cytometry on CHO-K1-huIL-36R-5E10/2F10 cells
human IL-36R [9] = target: T2, human IL-36R; test: cell-based or functional assay; remark: listed apart in the source
human IL-36R [10] = target: T2, human IL-36R; test: cell-based or functional assay; remark: listed apart in the source
[11] = target: T4, IL17A (analyte of Table 17); test: SPR Biacore 8K, antibody captured on anti-human chip, antigen as analyte, 1:1 model
Human IL-17A = target: T5, Human IL-17A; test: cell-based or functional assay

Binder | HuIL-6 detected in HIF under IL-36α stimulation IC50 (human IL-36R [2]) | EC50 of inhibition of IL-6 content, NCI/ADR-RES cells stimulated with IL-36β (human IL-36R [4]) | Kd [5] | koff [5] | kon [5] | HuIL-6 detected in HIF under IL-36β stimulation IC50 (human IL-36R [6]) | EC50 (human IL-36R [8]) | pNFκB detected in HIF under IL-36β stimulation IC50 (human IL-36R [9]) | IC50 of GM-CSF release, NCI/ADR-RES cells stimulated with IL-36α (human IL-36R [10]) | IC50 of GM-CSF release, NCI/ADR-RES cells stimulated with IL-36β (human IL-36R [10]) | IC50 of GM-CSF release, NCI/ADR-RES cells stimulated with IL-36γ (human IL-36R [10]) | IC50 of IL-6 release, NCI/ADR-RES cells stimulated with IL-36α (human IL-36R [10]) | IC50 of IL-6 release, NCI/ADR-RES cells stimulated with IL-36β (human IL-36R [10]) | IC50 of IL-6 release, NCI/ADR-RES cells stimulated with IL-36γ (human IL-36R [10]) | IC50 of IL-8 release, NCI/ADR-RES cells stimulated with IL-36α (human IL-36R [10]) | IC50 of IL-8 release, NCI/ADR-RES cells stimulated with IL-36β (human IL-36R [10]) | IC50 of IL-8 release, NCI/ADR-RES cells stimulated with IL-36γ (human IL-36R [10]) | IC50 of pNF-κB, NCI/ADR-RES cells stimulated with IL-36β (human IL-36R [10]) | Kd [11] | koff [11] | also measured
B1 | 0.0479 µg/mL | 0.069 nM | 0.0452 nM | 4.37e-05 s⁻¹ | 967000 M⁻¹ s⁻¹ | 0.0546 µg/mL | 0.32 nM | 0.105 µg/mL | 22 ng/mL | 17.4 ng/mL | 19.8 ng/mL | 15 ng/mL | 13.9 ng/mL | 16.2 ng/mL | 31.5 ng/mL | 22.3 ng/mL | 19.8 ng/mL | 71.4 ng/mL |  |  | Kd [1]: 0.141 nM; koff [1]: 0.00015 s⁻¹; kon [1]: 1.07e+06 M⁻¹ s⁻¹; EC50 (monkey IL-36R): 0.0595 µg/mL; HuIL-6 detected in NCI/ADR-RES under IL-36β stimulation IC50 (human IL-36R [3]): 8.87 ng/mL; EC50 (human IL-36R [7]): 0.062 µg/mL
B2 |  |  | 0.0148 nM | 1.34e-05 s⁻¹ | 904000 M⁻¹ s⁻¹ |  |  |  | 20.6 ng/mL | 18.4 ng/mL | 17.9 ng/mL | 12.4 ng/mL | 22.3 ng/mL | 12.1 ng/mL | 39.8 ng/mL | 22.1 ng/mL | 18 ng/mL | 105 ng/mL |  |  | 
B3 |  |  | 0.0579 nM | 5.1e-05 s⁻¹ | 881000 M⁻¹ s⁻¹ |  |  |  | 20.2 ng/mL | 18.6 ng/mL | 21 ng/mL | 21.6 ng/mL | 16.8 ng/mL | 17.6 ng/mL | 30.4 ng/mL | 22 ng/mL | 17.9 ng/mL | 64.9 ng/mL |  |  | 
B4 | 0.146 µg/mL |  | 0.0254 nM | 1.68e-05 s⁻¹ | 660000 M⁻¹ s⁻¹ | 0.0837 µg/mL |  | 0.1 µg/mL | 32.8 ng/mL | 22.4 ng/mL | 28.8 ng/mL | 33.2 ng/mL | 20.4 ng/mL | 19.8 ng/mL | 43.9 ng/mL | 29.2 ng/mL | 28.4 ng/mL | 115 ng/mL |  |  | 
B5 |  | 0.48 nM |  |  |  |  | 0.693 nM |  |  |  |  |  |  |  |  |  |  |  | 6.13 pM | 4.33e-05 s⁻¹ | kon [11]: 7.06e+06 M⁻¹ s⁻¹; EC50 of inhibition of IL-6 secretion, HT-1080 cells stimulated with h IL17-A and h TNF-α (Human IL-17A): 0.0766 nM
B6 |  | 0.65 nM |  |  |  |  | 0.799 nM |  |  |  |  |  |  |  |  |  |  |  | 7.96 pM | 5.71e-05 s⁻¹ | kon [11]: 7.17e+06 M⁻¹ s⁻¹; EC50 of inhibition of IL-6 secretion, HT-1080 cells stimulated with h IL17-A and h TNF-α (Human IL-17A): 0.0999 nM
